According to patent US20220396632A1 (VERSEAU THERAPEUTICS, published 2022):
No end group written: not given here. *: point of attachment. Biotin = O=C1N[C@H]2[C@H](CS[C@H]2CCCCC(=O)*)N1

Assays:
[1] = target: T1, Biotin sY51 PSGL-1(42-62) peptide (human, sulfotyrosine at Y51; C-terminal Lys-biotin); assay: ELISA, plate-bound mAb captures biotin peptide
T1 construct: also called Y51(SO3) PSGL-1(42-62)
T1 peptide: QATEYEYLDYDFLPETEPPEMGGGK
In short: (§1)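 Direct format: anti-PSGL-1 mAb at a single concentration (2–500 nM) or serially diluted (0.002–100 nM) on immobilized target, detected with HRP anti-IgG and TMB at A450; 45 min steps at 37° C. Capture format: coated mAb (3 ug/mL) binds biotinylated unmodified or sulfotyrosine peptide (3 nM–3 uM), detected with HRP-streptavidin.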

[2] = target: T2, Biotin sY46 PSGL-1(42-62) peptide (human, sulfotyrosine at Y46; C-terminal Lys-biotin); assay: ELISA, plate-bound mAb captures biotin peptide
T2 peptide: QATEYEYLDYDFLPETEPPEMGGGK
In short: as §1

[3] = target: T3, Biotin Y46,48,51(SO3) PSGL-1(42-62) peptide (human, sulfotyrosine at Y46, Y48 and Y51; C-terminal Lys-biotin); assay: ELISA, plate-bound mAb captures biotin peptide
T3 construct: also called fully sulfated N-terminal PSGL-1 peptide
T3 peptide: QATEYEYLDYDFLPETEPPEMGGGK
In short: as §1

[4] = target: T4, Biotin PSGL-1(105-125) peptide (human, N-terminal acetyl; C-terminal Lys-biotin); assay: ELISA, streptavidin-immobilized biotin peptide [cont.]
T4 peptide: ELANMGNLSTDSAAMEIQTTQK
Description: (§2) A typical ELISA experiment involved binding of a single concentration or serially diluted mAb in assay buffer (3% BSA in PBS containing 0.05% Tween®20, pH 7.4) onto BSA blocked high binding microtiter plate half-wells (Corning Cat. #3690), which contained PSGL-1 protein or streptavidin-immobilized biotin peptide. After incubation for 45 min. at 37° C., the plate was washed 3 times with wash buffer (PBS containing 0.05% Tween®20, pH 7.4), and an appropriate HRP-conjugated secondary antibody added (25 ul/well) (HRP goat anti-mouse or anti-human IgG). After 45 min. incubation at 37° C., the plate was washed and antibody bound to plate-immobilized target was determined at A450 nm using HRP substrate (3,3′5,5′-tetramethylbenzidine (TMB)). For each antibody, duplicate values were averaged and assay background subtracted.

[5] = target: T5, Biotin PSGL-1(290-310) peptide (human, N-terminal acetyl; C-terminal Lys-biotin); assay: as above
T5 peptide: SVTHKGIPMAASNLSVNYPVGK
Description: as §2

[6] = target: T6, Biotin PSGL-1(42-62) F53A peptide (C-terminal Lys-biotin); assay: ELISA, streptavidin-bound Ala peptide
T6 peptide: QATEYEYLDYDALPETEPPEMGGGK

[7] = target: T6, Biotin PSGL-1(42-62) F53A peptide; assay: ELISA; against wild-type PSGL-1 42-62
[8] = target: T7, Biotin PSGL-1(56-70) peptide (human); assay: ELISA, plate-bound biotin peptide
T7 peptide: Ac-ETEPPEMLRNSTDTTGK(Biotin)

[9] = target: T8, Biotin PSGL-1(42-62) L49A peptide (C-terminal Lys-biotin); assay: ELISA, streptavidin-bound Ala peptide
T8 peptide: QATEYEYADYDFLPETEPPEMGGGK

[10] = target: T9, Biotin PSGL-1(42-62) L54A peptide (C-terminal Lys-biotin); assay: ELISA, streptavidin-bound Ala peptide
T9 peptide: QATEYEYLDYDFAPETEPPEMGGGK

[11] = target: T10, PSGL-1(49-56)-Biotin (human, UniProt Q14242); assay: ELISA, plate-immobilized biotin peptide
T10 construct: synthetic peptide; also called short PSGL-1 49-56 peptide with C-terminal biotin
T10 peptide (looked up): LDYDFLPE-biotin

[12] = target: T8, Biotin PSGL-1(42-62) L49A peptide; assay: ELISA; against wild-type PSGL-1 42-62
[13] = target: T11, Biotin PSGL-1(42-62) Y51A peptide (C-terminal Lys-biotin); assay: ELISA, streptavidin-bound Ala peptide
T11 peptide: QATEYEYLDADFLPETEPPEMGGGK

[14] = target: T11, Biotin PSGL-1(42-62) Y51A peptide; assay: ELISA; against wild-type PSGL-1 42-62

B1: 20I15 (antibody, V domains shown)
VH: EVKLVESGGGLVQPGGSLSLSCAASGFTFTDYYMSWVRQPPGKALEWLGFIRNKANGYTTEYSASVKGRFTISRDNSQSILYLQMNALRAEDSATYYCARTYLRRGYFDVWGTGTTVTVSS
VL: DIVLTQSPASLAVSLGQRATISCRASKSVSTSGYSYMHWFQQKPGQPPKLLIYLASNLESGVPARFSGSGSGTDFTLNIHPVEEEDAATYYCQHSRELPLTFGAGTKLELK
notes: From mouse immunisation; only variable domains given; also called 20115
B1 showed an EC50 [1] of about 3000 nM, an EC50 [2] of about 3000 nM and an EC50 [3] of 292 nM.

B2: 18F02 (antibody, V domains shown)
VH: QVQLQQPGAELVKPGASVKLSCKASGYTFTSYWMHWVKQRPGQGLEWIGMIHPNSGRTNYNEKFKSKATLTVDKSSSTAYMQLSSLTSEDSAVYYCARSDYWGQGTTLTVSS
VL: DIVMTQAAFSNPVTLGTSASISCRSSKSLLHSDGITYLYWFLQRPGQSPQLLIYRMSNLASGVPDRFSGSGSGTDFTLRISRVEAEDVGVYYCAQMLEFPRTFGGGTKLEIK
notes: From mouse immunisation; only variable domains given
B2 was tested, and the binding result [4] was “no binding (tested: 10 nM)”, the binding result [5] was “no binding (tested: 10 nM)” and the EC50 [6] was 7.1 nM. For the same binder, the EC50Ala/EC50 wt [7] was 59.2 fold.

B3: 5E12 (antibody, V domains shown)
VH: EIQLQQSGAELVRPGASVKLSCTASGFNIKDDYIHWVKQRPEQGLEWIGRIDPANGNTKSAPKFQDKATITADTSSNTAYLHLSSLTSEDTAVYYCSIRFAYWGQGTLVTVSA
VL: DVVMTQTPLSLSVSLGDQASISCRSSQSLVYRNGDTYLHWFLQKPGQSPKLLIYKVSNRFSGVPDRFSGSGSGTDFTLKISRVEAEDLGIYFCSQNTHVPYTFGGGTKLEIK
notes: Mouse hybridoma mAb; only variable domains given
B3: binds [8].

B4: 10F01 (antibody, IgG4, V domains shown)
VH: EVQLVQSGGGLVQPGGSLRLSCAASGFTFSSYAMSWVRQAPGKGLEWVSALRGGDGGTYHADSVKGRFTISGDSSKNTLYLQMNSLRAEDTAVYYCARRMVGAAYAFDIWGQGTMVTVSS
VL: LPVLTQPHSVSESPGKTVTISCTRSSGSIADNFVQWYRQRPGSAPTTVIYEGDQRPSGVPGRFSGSIDSSSNSASLTISGLQTDDEADYYCQSFDSYNRRTHVVFGGGTKLTVL
With B4 the EC50 [1] was 36.2 nM, the EC50 [2] was about 2000 nM and the EC50 [3] was about 1 nM.

B5: 2E12 (antibody, V domains shown)
VH: QVQLQQSGAELARPGASVKLSCKASGYTFTNYGLNWVKQRTGQGLEWIGEIYPRSGNTYYNEKFKGKATLTADKSSSTAYMQLSSLTSEDSAVYFCATEGAYWGQGTLVTVSA
VL: DIVMTQTPLTLSVTIGQPASISCKSSQSLLHGNGKTYLNWLLQRPGQSPKLLIYLVSKLESGIPDRFSGSGSGTDFTLEISRVEAEDLGIYYCLQSTHFPRTFGGGTKLEIK
notes: as for B3
B5: binds [8].

B6: 19I01 (antibody, V domains shown)
VH: EVQLVESGGGLVKPGGSRKLSCAASGFTFSDYGMHWVRQAPEKGLEWVAYISSGSSTIYYADTVKGRFTISRDNAKNTLFLQMTSLRSEDTAMYYCARGVDGYWGQGTTLTVSS
VL: DVVMTQTPLSLPVSLGDQASISCRSSQSLVHSNGNTYLHWYLQKPGQSPKFLIYKVSNRFSGVPDRFSGSGSGTDFTLKISRVEAEDLGVYFCSQTTHVPLTFGAGTKLELK
notes: From mouse immunisation; only variable domains given; also called 19101
Work on B6 yielded an EC50 [6] of 2.95 nM and an EC50Ala/EC50 wt [7] of 24.6 fold.

B7: 03D07 (antibody, IgG4, V domains shown)
VH: EVKLLESGGGLVQPGGSLRLSCAASGFTFSSYALSWVRQAPGKGLEWVSAISGSGGNTYYADSVKGRFTISRDNSKNTLYLQMNSLRAEDTAVYYCAKVVGATNYWGQGTLVTVSS
VL: DIVMTQTPLSLPVTLGQPASISCRSSQSLVYSDGHTYLSWFHQRPGQSPRRLIYKVSIRDSGVPDRFSGSGSGTDFTLKISRVEAEDVGVYYCMQRLQIPLTFGGGTKVEIK
In the case of B7, the EC50 [1] is reported as about 2000 nM, the “fold stronger binding than to the unmodified peptide” value [1] is reported as about 10 fold and the EC50 [2] is reported as 971 nM. The “fold stronger binding than to the unmodified peptide” value [2] was about 10 fold and the EC50 [3] was 39.4 nM.

B8: 43B6 (antibody, V domains shown)
VH: EVQLQQSGPDLVKPGALVKISCKASGYSFTAYYIHWVKQSHGKSLEWIGRVNPNTGGTSYNPKFKGKAILNVDKSSSTAYMELRSLTSEDSAVYYCARSGSPYYRYDDWGQGTTLTVSS
VL: ENVLTQSPAIMSASPGEKVTMTCRASSTVNSTYLHWFQQKSGASPKLWIYGSSNLASGVPARFSGSGSGTSYSLTISSVEAEDAATYYCQQYSGYPLTFGAGTTLELK
notes: Control anti-PSGL-1 mAb, recombinant; only variable domains given; also called 43B3
In the case of B8, the EC50 [9] is reported as 2.63 nM, the binding result [10] is reported as “no binding” and the “EC50 (read off the curve)” value [11] is reported as about 0.4 nM. For the same binder, the EC50Ala/EC50 wt [12] was 12.2 fold.

B9: 16L15 (antibody, V domains shown)
VH: DVKLVESGGGLVKLGGSLKLSCAASGFTFSSYYMSWVRQTPEKRLEWVATISNGGGSTYYPDSVKDRFTISRDNAKNTLYLQMSSLNSEDTAVYYCAKPLYYSNPWFAYWGQGTLVTVSA
VL: DVLLTQTPLSLPVSLGDQASISCRSSQSIVHSNGNTYLEWYLQKPGQSPKLLIYKVSNRFSGVPDRFSGSGSGTDFTLKISRVEAEDLGVYYCFQGSHVPRTFGGGTKLEIK
notes: as for B2
B9 was tested, and the EC50 [13] was 8.83 nM, the EC50 [9] was 3.43 nM and the binding result [11] was “no binding (tested: Log M -7.7 (about 20 nM))”. For the same binder, the EC50Ala/EC50 wt [14] was 9.3 fold and the EC50Ala/EC50 wt [12] was 3.6 fold.

B10: 9F9 (antibody, V domains shown)
VH: EVQLVETGGGLVQPKGSLKLSCAASGFTFNTNAMNWVRQAPGKGLEWVARIRSKSNNYATYYADSVKDRFTISRDDTQSMIYLQMNNLKTEDTGMYYCVRGGSYWYFDVWGAGTTVTVSS
VL: DVLMTQTPLSLPVSLGDQASISCRSSQSIVNSNGNTYLEWYLQKPGQSPKLLIYKVSNRFSGVPDRFSGSGSGTDFTLKISRVEAEDLGVYYCFQGSHVPWTFGGGTKLEIK
notes: Control anti-PSGL-1 mAb, recombinant; only variable domains given; also called 9F6
B10 showed an EC50 [13] of 1.72 nM, an EC50 [10] of 2.31 nM and an EC50Ala/EC50 wt [14] of 10.8 fold.

B11: 18K07 (antibody, V domains shown)
VH: QIQLVQSGPELKKPGETVKISCEASGYTFTTYGMNWVKQAPGKGLKWMGWINTYSGVPTYADDFQGRFAFSVETSATTAYLQINNLKNEDAATYFCARSDDTYYGFAYWGQGTLVTVSA
VL: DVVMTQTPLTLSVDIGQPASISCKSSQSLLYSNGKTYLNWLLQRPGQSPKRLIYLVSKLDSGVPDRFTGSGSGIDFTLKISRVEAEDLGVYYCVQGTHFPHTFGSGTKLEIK
notes: as for B2
B11: no binding (tested: 10 nM) [4]; no binding (tested: 10 nM) [5].
